Target: T1, human GREM1 (hGREM1-His; SEQ ID NO: 595) (human, UniProt O60565 25-184)
T1 construct: also called biotin-hGREM1-His; recombinant human GREM1 protein
T1 sequence: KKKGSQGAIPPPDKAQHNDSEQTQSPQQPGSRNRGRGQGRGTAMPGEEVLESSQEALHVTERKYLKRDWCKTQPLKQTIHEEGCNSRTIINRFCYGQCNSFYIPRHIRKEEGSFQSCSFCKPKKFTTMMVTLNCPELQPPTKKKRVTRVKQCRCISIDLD
Experiment: competition ELISA, 100 pM biotin-hGREM1-His on plate-coated hBMP4
Experimental: Data were analyzed using a sigmoidal dose-response model within Prism™ software. […] The absorbance values of the wells containing the highest concentration for each antibody were used to determine the percent maximum blocking.

B1: H4H6243P (antibody, human IgG4, V domains shown)
VH: QVQLVQSGAEVKKPGASVKVSCKVSGYTLTELSMHWVRQAPGKGLEWMGGFDPEDGETIYAQKFQDRVTMTEDTSTDTAYMELSSLRSEDTAVYYCVTDDYEILPEYPYNMDVWGQGTTVTVSS
VL: DIQMTQSPSSLSASVGDRVTITCRASQSISTYLNWYQQKPGKAPKLLIYAASSLQSGVPSRFSGSGSGTDFTLTIRSLQPEDFATYYCQQSHITPFTFGPGTKVDIK
notes: H4H = human IgG4 Fc
Question: With B1 as the binder, how does the IC50 read?
Answer: 7.2 pM

Source: patent US20230192831A1 (published 2023)
